Assay results published in US20260000736A1, “PURIFIED LACTOFERRIN COMPOSITIONS AND METHODS OF USE” (Lactea Therapeutics LLC, priority 2023, published 2026).

Experiments:
Enterobacter cloacae = experiment: Biofilm formation, crystal violet assay; assay type: cell-based; conditions: 24 hours of growth
[1] = system: Salivary bacteria (including Lactobacillus, Lactococcus, and Streptococcus mutans); experiment: Salivary bacteria acid production, pH over time; assay type: cell-based; conditions: in the presence of sucrose, entire 6 hour testing period
Experimental: Salivary bacteria (including Lactobacillus, Lactococcus, and Streptococcus mutans) produce acid during growth. This acidification is strongly associated with tooth decay, particularly when it results in pH below 5.5, which is a clinically relevant threshold. A slurry of these bacteria were treated with sucrose to stimulate growth, as well as varying concentrations of API-E2 lactoferrin. Upon the addition of sucrose and API-E2 lactoferrin, the pH was adjusted to 7 through a titration and the change in pH was subsequently monitored over the next 6 hours.

[2] = DSC iron binding capability with excess FeCl3; conditions: FeCl3 added in 1000× molar excess
Experimental: The DSC assay was further used to assess Lactoferrin bioactivity, specifically the iron binding capability of the API-E2 Lactoferrin. Iron chloride (FeCl3) was added in 1000× molar excess to API-E2 Lactoferrin. In the presence of excess iron, the API-E2 lactoferrin will bind the iron to its open iron binding site.

SARS-CoV-2 = SARS-CoV-2 Cytopathic Effect (CPE) reduction assay in Vero E6 cells; assay type: cell-based; conditions: Vero E6 cells, MOI of 0.001, neutral red, three days post-infection
Streptococcus mutans = experiment: Biofilm formation, crystal violet assay; assay type: cell-based; conditions: 24 hours of growth
[3] = system: salivary human bacteria (including Lactobacillus, Lactococcus, Streptococcus mutans, and Porphyromonas gingivalis); experiment: Poultry surface treatment, chicken breast inoculated with salivary bacteria; conditions: 3 mg/mL surface treatment, 6 days at 37° C.
Experimental: Chicken breasts were inoculated with salivary human bacteria in a slurry as described above in pH testing (including Lactobacillus, Lactococcus, Streptococcus mutans, and Porphyromonas gingivalis) and left for 6 days at 37° C.

[4] = ITC-based assay, binding to LPS
Candida auris = experiment: Biofilm formation, crystal violet assay; assay type: cell-based; conditions: 24 hours of growth
E. coli 0157 = experiment: Bacterial growth inhibition, OD600 after 16 h; assay type: cell-based; conditions: 1 mg/mL Lf, 16 h at 37° C.; for Relative Bacterial Growth, Replicate 1 / Relative Bacterial Growth, Replicate 2 / Relative Bacterial Growth, Replicate 3: 10∝CFU/mL E. coli 0157 in LB, OD600 relative to untreated
Experimental: As an analytical standard for the assessment of Lactoferrin (Lf) activity, 1 mg/mL Lf was added to 10∝CFU/mL E. coli 0157 in LB and incubated for 16 h at 37° C. Lactea Lactoferrin (Lactea-Lf) was produced as described in the above examples. Assessed were three independent lots of Lactea-Lf, impure samples which were generated by co-eluting Lactoperoxidase and Lactoferrin (co-elution), samples with degradation products generated by eluting Lactoferrin from old milk which was left for three days (Degradation Products), and a Sigma Aldrich Lactoferrin L9507 (Research Standard). As shown in FIG. 16 and quantified in Table 5, in the Lactea-Lf lots assessed, less than 5% the total growth of bacteria was observed as assessed by OD600 relative to the growth of untreated bacteria under these conditions. In this case, co-elution samples were samples which have a detectable peak of LPO as observable in MALDI-TOF M/S or HPLC. Degradation Products had identifiable degradation peaks as observed in HPLC or DSC.

E. coli = experiment: Zone of inhibition test; assay type: cell-based
Experimental: A zone of inhibition test was performed to assess bioactivity of API-E2 Lactoferrin. A plate with E. coli was cultured with 100 µg/mL, 10 g/mL, 1 g/mL, and 0.1 g/mL API-E2 Lactoferrin added to paper circles and allowed to diffuse out.

[5] = system: mice with two 10 mm puncture wounds through the skin; experiment: Mouse puncture wound model, survival; assay type: in vivo
Experimental: Lactea Lactoferrin (Lactea-Lf) was produced as described in the above examples and freeze-dried by lyophilization into a powder. Lactea-Lf was then administered as the freeze-dried powder in a variety of animal wound contexts.
In a first assessment in a mouse model setting, mice were anesthetized with isoflurane and two 10 mm puncture wounds were made through the skin of each mouse on the back. Three of the mice were treated with Lf added as a freeze dried powder directly into the wound bed while anesthetized immediately after wounds were made, while the three other mice were left completely untreated. Mice were then transferred to non-sterile housing and observed daily.

[6] = system: Staphylococcus epidermidis; experiment: Biofilm formation, crystal violet assay; assay type: cell-based; conditions: 24 hours of growth
[7] = system: pigs with dermatome wounds; experiment: Pig dermatome wound healing model; assay type: in vivo; conditions: dermatome wounds 40×40 mm at a depth of 0.76 mm, topical treatment
Experimental: In a first assessment in a pig model setting, using a dermatome, six wounds were made on each pig with three on the left side and three on the right side of each pig covering a surface area of 40×40 mm at a depth of 0.76 mm. […] For each pig, the wounds on the left of the animal were treated while the wounds on the right wide were left as untreated controls. […] Standard of care was advised on by veterinarians with experience in dealing with wound management in a farm setting.

Staphylococcus aureus = experiment: Biofilm formation, crystal violet assay; assay type: cell-based; conditions: 24 hours of growth
Enterococcus faecalis = experiment: Biofilm formation, crystal violet assay; assay type: cell-based; conditions: 24 hours of growth
Bifidobacterium longum = experiment: Planktonic growth in culture, OD600; assay type: cell-based; conditions: 10-fold serial dilution of Lf, 18 hours
lactoperoxidase (LPO) = experiment: Enzymatic colorimetric assay for lactoperoxidase (LPO) activity; assay type: biochemical; conditions: colorimetric peroxidase substrate
Excerpt: An enzymatic assay for lactoperoxidase (LPO) activity was developed utilizing a molecule which in the presence of peroxidase activity turns a blue color.

B1: Lactea-Lf: bovine lactoferrin purified from raw untreated milk by cation exchange chromatography and filtration according to Example 1 (protein)
chain: APRKNVRWCTISQPEWFKCRRWQWRMKKLGAPSITCVRRAFALECIRAIAEKKADAVTLDGGMVFEAGRDPYKLRPVAAEIYGTKESPQTHYYAVAVVKKGSNFQLDQLQGRKSCHTGLGRSAGWVIPMGILRPYLSWTESLEPLQGAVAKFFSASCVPCIDRQAYPNLCQLCKGEGENQCACSSREPYFGYSGAFKCLQDGAGDVAFVKETTVFENLPEKADRDQYELLCLNNSRAPVDAFKECHLAQVPSHAVVARSVDGKEDLIWKLLSKAQEKFGKNKSRSFQLFGSPPGQRDLLFKDSALGFLRIPSKVDSALYLGSRYLTTLKNLRETAEEVKARYTRVVWCAVGPEEQKKCQQWSQQSGQNVTCATASTTDDCIVLVLKGEADALNLDGGYIYTAGKCGLVPVLAENRKTSKYSSLDCVLRPTEGYLAVAVVKKANEGLTWNSLKDKKSCHTAVDRTAGWNIPMGLIVNQTGSCAFDEFFSQSCAPGRDPKSRLCALCAGDDQGLDKCVPNSKEKYYGYTGAFRCLAEDVGDVAFVKNDTVWENTNGESTADWAKNLNREDFRLLCLDGTRKPVTEAQSCHLAVAPNHAVVSRSDRAAHVKQVLLHQQALFGKNGKNCPDKFCLFKSETKNLLFNDNTECLAKLGGRPTYEEYLGTEYVTAIANLKKCSTSPLLEACAFLTR
Inhibition of Biofilm Formation (Enterobacter cloacae): Strong (Lf was deemed to have a strong activity if biofilms were eliminated or significantly reduced to less than 90% less than no treatment at concentrations of 10 mg/mL or less after 24 hours of growth)
pH of salivary bacteria slurry ([1]; 1 mg/mL): above 5.5
pH of salivary bacteria slurry ([1]; 10 mg/mL): above 5.5
available Apolactoferrin shifted to the Hololactoferrin form [2]: 100%
EC50 (SARS-CoV-2): 90 nM
Inhibition of Biofilm Formation (Streptococcus mutans): Strong (Lf was deemed to have a strong activity if biofilms were eliminated or significantly reduced to less than 90% less than no treatment at concentrations of 10 mg/mL or less after 24 hours of growth)
bacterial growth on chicken breast [3]: no detectable growth of any bacteria colonies
binding to LPS [4]: binds to LPS
competition of LPS binding with HS binding [4]: competitive with HS binding
Inhibition of Biofilm Formation (Candida auris): Strong (Lf was deemed to have a strong activity if biofilms were eliminated or significantly reduced to less than 90% less than no treatment at concentrations of 10 mg/mL or less after 24 hours of growth)
Relative Bacterial Growth, Replicate 1 (E. coli 0157; listed as Lactea-Lf Lot 1): 3.15E−09
Relative Bacterial Growth, Replicate 2 (E. coli 0157; listed as Lactea-Lf Lot 1): 0.002228
Relative Bacterial Growth, Replicate 3 (E. coli 0157; listed as Lactea-Lf Lot 1): 0.04512
Relative Bacterial Growth, Replicate 1 (E. coli 0157; listed as Lactea-Lf Lot 2): 0.01532
Relative Bacterial Growth, Replicate 2 (E. coli 0157; listed as Lactea-Lf Lot 2): 0.005292
Relative Bacterial Growth, Replicate 3 (E. coli 0157; listed as Lactea-Lf Lot 2): 0.01281
Relative Bacterial Growth, Replicate 1 (E. coli 0157; listed as Lactea-Lf Lot 3): 0.003621
Relative Bacterial Growth, Replicate 2 (E. coli 0157; listed as Lactea-Lf Lot 3): 0.01059
Relative Bacterial Growth, Replicate 3 (E. coli 0157; listed as Lactea-Lf Lot 3): 0.008635
total growth of bacteria by OD600 relative to the growth of untreated bacteria (E. coli 0157): less than 5%
zone of inhibition (E. coli; 10 µg/mL on paper circles): complete inhibition
zone of inhibition (E. coli; 100 µg/mL on paper circles): complete inhibition
zone of inhibition (E. coli; 0.1 g/mL on paper circles): No zone of inhibition
zone of inhibition (E. coli; 1 g/mL on paper circles): limited zone of inhibition
survival of mice following wounding ([5]; freeze dried powder directly into the wound bed, non-sterile housing, study to day 28, all three untreated mice died by day 12): only one mouse died at day 14 and the other two survived to the conclusion of the study at day 28
toxicity of powder administered to wounds ([5]; mice, freeze-dried powder of pure Lf administered to the wounds): no toxicity was observed
Inhibition of Biofilm Formation [6]: Strong (Lf was deemed to have a strong activity if biofilms were eliminated or significantly reduced to less than 90% less than no treatment at concentrations of 10 mg/mL or less after 24 hours of growth)
wound healing [7]: healing occurred within one day
Inhibition of Biofilm Formation (Staphylococcus aureus): Strong (Lf was deemed to have a strong activity if biofilms were eliminated or significantly reduced to less than 90% less than no treatment at concentrations of 10 mg/mL or less after 24 hours of growth)
Inhibition of Biofilm Formation (Enterococcus faecalis): Strong (Lf was deemed to have a strong activity if biofilms were eliminated or significantly reduced to less than 90% less than no treatment at concentrations of 10 mg/mL or less after 24 hours of growth)
Inhibition of Planktonic Growth (Bifidobacterium longum): None
LPO enzymatic activity (blue color reaction) (lactoperoxidase (LPO)): neither detected by M/S or by the enzymatic assay
